Results: a protein production outcome set (Wang et al. 2014)

Assay: label from the status in PepcDB records

MFTESSPAMDPDLPESETRPEFNPSSTDSTAMAESTDAGEPTAFELASSQVTSVADLPPERFNSLDELTHDLGSLHELSTRGSWQAILEKISQARALFLLTKPHEHLTYLTYQVMALAKLRRSDEASHELNSLHDFDGTHYRYESFPEIYPNRRGSMVPFSLRWLYALIPTKLGNRQEGLDRLYVLLDFVRDRIREKESQSLESSVELWKKRETFVMNCLLGFHLGHKEFGVSLDLMKELINRDPLDPVLISKLGSVQMQFGDVEGAKTTFDRVEKMLNEGKSNGLLNEIQFNNLVGRNKALVYVVAKDYVSAVREYDKCIERDNSDIIAVNNKALCLMYLRDLSDAIKVMESALERVPTAALNESLVVNLCSMYELAYVNHTDVKRTLNNWIARVAPDDFDSSCTRV
protein production: failed

MFTETGLKSGRRTMRFARLLLLPLIVIGTLSGCAVNMADIHGFNVISLEQEKELGTKFAAEIEKQYPVYNDPEAQKYVDRLGRRLLTGAREVSFDYVFKVVKDDSVNAFAIPGGRLYVHTGLLKAAQSETEVAAVMAHEISHAVARHGTRQMTQQYGYSLVLSLVLGQNSNMLAQIAGELFGKAGMMSYSRDYENQADFLGVETMSKAGYNPQGMVSFFQKLDTMGQQNPSALTKFFSSHPLTSERIQRVQAEIAQLPPRTYPPVDNTDLQKIRARIKLEHHHHHH
protein production: failed

MFTGSIVALVTPMDEKGNVSRSCLKKLIDYHVANGTSAIVSVGTTGESATLSHDEHGDVVMMTLELADGRIPVIAGTGANATAEAISLTQRFNDSGIVGCLTVTPYYNRPTQEGLFQHFKAIAEHTDLPQILYNVPSRTGCDMLPETVGRLAEIKNIIAIKEATGNLTRVHQIKELVSDDFILLSGDDASALDFMQLGGHGVISVTANVAAREMADMCKLAAEGQFAEARAINQRLMPLHNKLFVEPNPIPVKWACKALGLVATDTLRLPMTPITDHGRDIVKAALQHAGLL
protein production: not failed

MFVFGAYWFDCGERAVLPANSRGALRPQCTRLRFWRGRYWHRGAVSALRRVRPLSASTPSPRVLDGSQSLADTPDNVQQLLQHMSQELDSVVQSMVHLEEYALEQVEKLKGAMEADLRKLALYEEEQAFAQKLTEQLQKKEGAVFEAMRHFLFHVVGLQEQTVAITNELQVLHEFVSENHERVELVLESLRERGLFGSRQDVFEGEVKKKLDRFDPEI
protein production: failed

MFVQSALHQLKVAVDTSIQMLDQYTEIDLKIAPIQSKRSLFEMYAHLSLICHADLLILNGSTEKELHTFYKEQTPETIAQMQKTMIQGYDLLSKTFLSYSNEQLAEMKTAYWGISYSRFEWLLEIVAHFYHHRGQIHILLCEHMKDPNIPLFQ
protein production: not failed

MFVRSHCLEVTNLRKWFYYFNRRNKRMQWLKVILAGFIEIIWVTGLDQAHSLFTWIFTLFFIALSFFLVIDASKHLPVGTVYAFFVGIGAVGTVLVDMIFFNQPFTFTKIFLIMTLILGIIGLKLTTDATKEGR
protein production: failed

MFWDNLTVAAKFFIEISVELTILFIGITFLVGLSQEYVPDETIKRALGGRNKVIGSILGAGFGAITPFCSCSTIPLLLGMLKAGAPFAAAMAFLFSSPLLNPVIISLFVILLGWKVTALYFVVVFMSTIAIGLLLDWLGFSNQIKPVAVVRNRCDCEQDTNAKSRIQRSAVFAFSLFRQLMPYLLLGAGIGAFIHGFVPTEVITRVAGPSNPLAVPVAAIIGVPIYIRAETMIPIGLALIKKGMSVGAVLALIIGGAGASIPELTLLSSIFKKRLLTAFVITVFSIAVIAGYLANLLTL
protein production: failed

MGAIPKTGTISPEQKDSQEKNLFQKIWSWEIGVIPLPLYTVLAVIIILAAYYNELPANMLGGFAIIMILGVFLGDIGQRIPILKDIGGPAILSLFVPSFLVFYNVLNSTSLDAVTNLMKTSNFLYFYIACLVVGSILGMNRIVLIQGFIRMFVPLVAGTIAAVAAGILVGFIFGYSAYDSFFFVVVPIIAGGIGEGILPLSIAYSQILGSSADVFVSQLVPAAIIGNVFAIICAALMKKLGDKRPDLNGNGRLVKSKKANEIFNQKEAEAKIDFKLMGAGVLLACTFFIFGGLLEKFIFIPGAILMIISAAAVKYANILPKKMEEGAYQLYKFISSSFTWPLMVGLGILFIPLDDVASVISIPFVIICISVVIAMIGSGYFVGKLMNMYPVESAIVTCCHSGLGGTGDVAILSASGRMGLMPFAQISTRLGGAGTVICATVLLRFFTS
protein production: failed

MGARAPFAVAGRGEIGRGQQGQAQPGGMMRALALALLLWPACAAAEFFTLKGHGGPVMGIAVGPEGQIATASFDNSVGLWTGRAPHWFEGHEAAVNTVAFQGGVLYSAGDDFTLRRWPEGTILGRHKGKITGLALSETLAATASWDGTIGLWPLDSRAPRSLDAASGVNAVAFSPDGTLLYSAGMDGVLRLWDVASGSELRQITRHGFGINEIVLNDADGWLAYGAVDGVTRILDLATGAERDFTLDRRPVLALALSPDRSQLAVGDGEGYIMVIDTASWRIARDFRATLRGPVWALAFSPDGANIHAGGIDDTMYSWPVASLSEHGKMASGERSFLKDPDQMDNGERQFARKCSICHALTPEGGRRAGPTLYRVFGRRAGTLPGYLYSDTLAGSDIVWTEESINSLFDLGPDHYIPGSKMPMQRITGAQDRADLIAYLRRATLAKESP
protein production: failed

MGAVSAFSWASSGRLHALEVFVMKIPKTYDEIMEHFGGLIDEVTAELLESYAKGETVRVSEALAKSGRVAVEGVVLRVFPVRHFSKNGRSGKVGSVVIQDDCTVRVNFWNEAAEIIEAGDIVEGARIKVRGYARGEEIHVNSLSEVEVFVDFVNISELDEKVGERVNVKGFVSGLGEPEKANEIYISDETGRVKVLLENESLYYAVDIGSYVEIYNALAGEDGIYVDRNSRFSVGELEHHHHHH
protein production: failed

MGCDFAIAKDFLLFFLTKPISMKLSVIIPIYNEIQTIEKILKKITTVMPEIPKEIVMVDDGSKDGTREWLVDTFGDPEQHPVLANVNLAGKFQCFPLDQSAETNGDRQGNSFVMPKEWEVKVIFHRQNQGKGGALHTAFAAATGDVLIIQDADLEYDPEDWGPMWKLIDGGWADVVYGSRFYGNPHRVLYFHHYLGNKLITSLIDLVCNINLTDIEVCYKMFRREVLEDLRLTCNDFGFEVEFTMKVTRSPKRWRIYEVGVAYYGRTFAEGKKINWRDGVKALGYIAKFWLTNALEHHHHHH
protein production: failed

MGDEALVVDPLRFIDVYEQVAQQEGVTITHIVDSHLHADHLSGGKALAERTGAAYYLMKSEGAVFDFEPLEQHETIDFENVHLEVLAVKTPGHTPGSVSFFVNGKWLFSGDTIFVGGLGRPDLGGKVAEWAEDLYHTVYEKVAAMADDVIVLPAHYANLDEEINAEGYVGDTLGRIRARNEMMQNKAKDEFIDLVIQGLEHHHHHH
protein production: failed

MGDGAVKQGFLYLQQQQTFGKKWRRFGASLYGGSDCALARLELQEGPEKPRRCEAARKVIRLSDCLRVAEAGGEASSPRDTSAFFLETKERLYLLAAPAAERGDWVQAICLLAF
protein production: not failed

MGDNWRYEVKYDGFRTILFWTKETIRLESRNERLLTDQFPEIHDFCQRISNKVEAWLPITIDGELVHLVSPYRAHFAPIQTRSFMRKHETIAASSIKTPATLLAFDILELKGKTLVDLPYDERKKQLKALLKAIDVPLEHHHHHH
protein production: failed

MGDQRFDVLITGGTLVDVVTGELRPADIGIVGALIASVHEPASRRDAAQVIDAGGAYVSPGLIDTHMHIESSMITPAAYAAAVVARGVTTIVWDPHEFGNVHGVDGVRWAAKAIENLPLRAILLAPSCVPSAPGLERGGADFDAAILADLLSWPEIGGIAEIMNMRGVIERDPRMSGIVQAGLAAEKLVCGHARGLKNADLNAFMAAGVSSDHELVSGEDLMAKLRAGLTIELRGSHDHLLPEFVAALNTLGHLPQTVTLCTDDVFPDDLLQGGGLDDVVRRLVRYGLKPEWALRAATLNAAQRLGRSDLGLIAAGRRADIVVFEDLNGFSARHVLASGRAVAEGGRMLVDIPTCDTTVLKGSMKLPLRMANDFLVKSQGAKVRLATIDRPRFTQWGETEADVKDGFVVPPEGATMISVTHRHGMAEPTTKTGFLTGWGRWNGAFATTVSHDSHNLTVFGGNAGDMALAANAVIGTGGGMAVASEGKVTAILPLPLSGLVSDAPLEEVARAFEDLREAVGKVVEWQPPYLVFKACFGATLACNIGPHQTDMGIADVLTGKVMESPVIEVLEHHHHHH
protein production: failed

MGDSMSLDWDKLRIFHAAAEAGSFTHAADKLHLSQSAISRQVSSLEQDVGIKLFHRHARGLILTEQGEMLYRTAHDVLMKLESVKAQLSETTDKPSGKLRITTTVGLGQGWLTDKIQEFMSLYPEIQVQLILDNEELDVNMRHADCAIRLRQPQQSDLIQRKLFTVHMHVYAAPSYINKYGEPQSLDDLDNHRIITFGEPAPNYLLDVNWLEIAGRDSDNPRISHLQINSQTSIKRACLLGIGIAMLPDYIVGRDPGLIQLPISADIPSFDTYFCYPDELKNAAKLKVFRDYIVAKARNWNF
protein production: failed

MGDSPMNKNAKPDLAGTAALALDKGDPLLTPASVSQRDDARSQQPLGREALDVFVAWSIIGIFLIMSMAVIHELSMILMPVVMAVVVGMILGISAEKLASYGIPGAGVALILSTLVAAVIFFVVNSLIDPVSQLATEGPALIERSIDRFLPYVQNLRWLNISAATFSMGSMSMESLISRSGEIITLLGANVTPAIVQGLIFLAALLMFLYSRLRLRKALIMVFPARHQRLRTIRIIGSVEKVLGTYFATASLIYAALGVTMIVIAYVGGLSMPLLWGLFAFLSSFVPFLGITLMTISLTIAGIIAHDNMILALLPAGVFFTIHLLMENLAFPAVVGRNMEINPFLVFVMIIFWTWMWGAAGAMLALPLSLIAMTVTRELFPSRRVVPKLPD
protein production: failed

MGEMAPTLVLKNATYLNSVRGKWLDANIWIYQDRIVYVGQDMPAKLDDETEVVDCGQQVIVPGYIEHHAHPFQLYNPHSFANYAAAMGTTTLINDNLEHHHHHH
protein production: not failed

MGENNSHKHSLLFIVLISCAAGLGGLLYGYDTAVISGAIGFLKKLYNLSPAMQGFVISSIMVGGVLGVGFSGFLGDAIGRRKVLMLAAALFAISAVISSISTSAFMLIFARIVGGLGIGMASALSVTYITECAPPSIRGRLSSLYQLFTILGISITFFVNLGIVNMGSETWRVSTGWRYMLACGTVPAIVFLITLFFVPESPRFLVKSGNIKKAAAVLTKINGAEIAKQELDSISKSLATENDSSLGQLLQPGLRRALLIGIFLAIFNQAIGMNSITYYGPEIFQMIGFKNNSSFLATSVIGVVEVFSTILAMFLIDKLGRKKLMEIGSAAMAVFMLLIGTSFYIKLSNGFVILIFIICFVVSFCISMGPIPWIMIPEIFPNHLRARATGIATIFLWGANWAIGQFTPMLLNGIGGAYTFWIFCGINVICFLVVTTKVPETKNKSLEEIEKFWIPKSKQNAKGSSVGAK
protein production: failed

MGERIIPKNMKPMNGMLLEHLARYYFSTPYASGRVLDIACGTGYGSVMVAKTRKTEVDQVLGVDFDADVIHYAKQNYYHPKVSFLVGDAMDPYLRNQIGTFDTILSFETIEHVKDDRLFIERMRQLLKKDGTLVLSTPFGQGRGKPSDEPFHYHQLTEEEFRSLFDSFSEKEVFYQRGVTIEPKRTNVHYAFGVAVCKLEHHHHHH
protein production: failed

MGERSDSRLAAMRTDELNIDVVLVQRLVAGQFPRWAGLGVEAVDSGGTSNAMYRLGADLVVRLPRRAGAEGDVAKEHRWLPWLAPRLPVAVPVPLGQGLPAGNYPFRWSVYRWLDGATPDVGHLVAPGLLAEDLAGFIDALHRVDPAGGPDSYRSEHLAVRDTVTREAIEELRGVVDADAARAVWETALRAPVWAGPPVWIHADLQPGNVLVDRGRLGAVIDFGCLGLGDPAVDLIVAWYVLPGDVREAFRAAVAADDASWARGRGWALSIALVELRYYRDTNPVMAGHARRVIREVLDGRER
protein production: failed

MGEVWTWIISFLILITLLGLIVYQLISLADLEFDYINPYDSASRINFVVLPESILQGFLCVFYLVTGHWFMALLCVPYLYYNFHLYSRKQHLIDVTEIFNLLDWEKKKRLFKLAYIILTLFLTIFWLIYSTLDDYED
protein production: failed
